# B1: Scaffold protein ILK (Mus musculus), O55222 (parent)
# chain: MDDIFTQCREGNAVAVRLWLDNTENDLNQGDDHGFSPLHWACREGRSAVVEMLIMRGARINVMNRGDDTPLHLAASHGHRDIVQKLLQYKADINAVNEHGNVPLHYACFWGQDQVAEDLVANGALVSICNKYGEMPVDKAKAPLRELLRERAEKMGQNLNRIPYKDTFWKGTTRTRPRNGTLNKHSGIDFKQLNFLAKLNENHSGELWKGRWQGNDIVVKVLKVRDWSTRKSRDFNEECPRLRIFSHPNVLPVLGACQAPPAPHPTLITHWMPYGSLYNVLHEGTNFVVDQSQAVKFALDMARGMAFLHTLEPLIPRHALNSRSVMIDEDMTARISMADVKFSFQCPGRMYAPAWVAPEALQKKPEDTNRRSADMWSFAVLLWELVTREVPFADLSNMEIGMKVALEGLRPTIPPGISPHVCKLMKICMNEDPAKRPKFDMIVPILEKMQDK
# partner: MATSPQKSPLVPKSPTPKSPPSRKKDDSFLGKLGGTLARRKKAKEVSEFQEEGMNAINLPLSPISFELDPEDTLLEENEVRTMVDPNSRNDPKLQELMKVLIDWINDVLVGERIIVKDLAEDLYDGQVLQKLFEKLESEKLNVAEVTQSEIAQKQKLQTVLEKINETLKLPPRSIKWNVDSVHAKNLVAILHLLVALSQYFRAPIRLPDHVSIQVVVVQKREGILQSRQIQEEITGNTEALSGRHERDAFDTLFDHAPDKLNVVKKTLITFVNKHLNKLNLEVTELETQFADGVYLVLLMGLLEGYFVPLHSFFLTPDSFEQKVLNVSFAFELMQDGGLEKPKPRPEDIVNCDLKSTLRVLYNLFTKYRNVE
# Variants of: B1
# Conditions: with parva_mouse Parva
row,Variant,effect of a mutation on the interaction
1,MDDIFTQCREGNAVAVRLWLDNTENDLNQGDDHGFSPLHWACREGRSAVVEMLIMRGARINVMNRGDDTPLHLAASHGHRDIVQKLLQYKADINAVNEHGNVPLHYACFWGQDQVAEDLVANGALVSICNKYGEMPVDKAKAPLRELLRERAEKMGQNLNRIPYKDTFWKGTTRTRPRNGTLNKHSGIDFKQLNFLAKLNENHSGELWKGRWQGNDIVVAVLKVRDWSTRKSRDFNEECPRLRIFSHPNVLPVLGACQAPPAPHPTLITHWMPYGSLYNVLHEGTNFVVDQSQAVKFALDMARGMAFLHTLEPLIPRHALNSRSVMIDEDMTARISMADVKFSFQCPGRMYAPAWVAPEALQKKPEDTNRRSADMWSFAVLLWELVTREVPFADLSNMEIGMKVALEGLRPTIPPGISPHVCKLMKICMNEDPAKRPKFDMIVPILEKMQDK [K220A],decreasing interaction strength
2,MDDIFTQCREGNAVAVRLWLDNTENDLNQGDDHGFSPLHWACREGRSAVVEMLIMRGARINVMNRGDDTPLHLAASHGHRDIVQKLLQYKADINAVNEHGNVPLHYACFWGQDQVAEDLVANGALVSICNKYGEMPVDKAKAPLRELLRERAEKMGQNLNRIPYKDTFWKGTTRTRPRNGTLNKHSGIDFKQLNFLAKLNENHSGELWKGRWQGNDIVVMVLKVRDWSTRKSRDFNEECPRLRIFSHPNVLPVLGACQAPPAPHPTLITHWMPYGSLYNVLHEGTNFVVDQSQAVKFALDMARGMAFLHTLEPLIPRHALNSRSVMIDEDMTARISMADVKFSFQCPGRMYAPAWVAPEALQKKPEDTNRRSADMWSFAVLLWELVTREVPFADLSNMEIGMKVALEGLRPTIPPGISPHVCKLMKICMNEDPAKRPKFDMIVPILEKMQDK [K220M],decreasing interaction strength

# Reference: IntAct's records for PubMed 19829382
